Laboratory results published in patent publication US20150148520A1.
Several values for one entry are separate records, joined by “and”; a condition that tells them apart may be missing. Equal entries are not always repeated.

Key:
[1] = target: insulin receptor, B subtype (UniProt P06213); experiment: cell-based or functional assay
[2] = target: human IGF-1 receptor (human) (UniProt P08069); experiment: cell-based or functional assay
[3] = target: insulin receptor, A subtype (UniProt P06213); experiment: cell-based or functional assay
[4] = target: human insulin receptor (human) (UniProt P06213); experiment: cell-based or functional assay
[5] = target: human insulin receptor (human) (UniProt P06213); experiment: SPA competition, [125I]-insulin, IR membranes

% (in vitro activity, IR-B) [1] [%] | % (in vitro activity, IR-A) [3] [%] | % Insulin Activity [1] [%] | % Insulin Activity [3] [%] | % Insulin Activity [2] [%] | Substance | other results
5.7 |  |  |  |  | Ala,B5: B^1(A5H10Y16L17)25-C^1-A^1(H8N18N21) (from UniProt P05019 49-110) (ligand) | % (in vitro activity, IGF-1 R) [2]: 2.5%
 | 0.03 |  |  |  | DP3(SC): B^1(H5,10Y16L17K29)29-A^1(H8,N18,21) (from UniProt P05019 49-110) (ligand) | 
12.6 | 132 |  |  |  | DP8Mut3KA14: B^1(H5,10Y16L17R29)30-C^1des9-12-A^1(H8,K14,N18,21) (from UniProt P05019 49-110) (ligand) | 
17.4 | 61.4 | 17.4 | 61.4 | 3.2 | MIU-35: B^1(H5,H10,Y16,L17)25-C^1-A^1(H8,N18,N21) (from UniProt P05019 49-110) (ligand) | % (in vitro activity, IGF-1 R) [2]: 3.2%
16.7 | 97.5 |  |  |  | MIU-43 DP8Mut3: B^1(H5,10Y16L17R29)30-C^1des9-12-A^1(H8,N18,21) (from UniProt P05019 49-110) (ligand) | % (in vitro activity, column IGF-1R) [2]: 14.2%
 |  |  | 14.8 |  | MIU-56: C8-PEG20K B^1(H5,Y16,L17)25-PEG8-K-PEG4-A^1(N18,N21) (from UniProt P05019 49-110) (ligand) | 
2.1 | 6.4 |  |  |  | di-10K-TC: B1, A14-10K B^1(H5,10Y16L17R29)29: A^1(H8K14N18,21) (ligand) | 

Second part, the substance before the results:

Substance | % (in vitro activity, IR-B) [1] [%] | % (in vitro activity, IR-A) [3] [%] | % Insulin Activity [1] [%] | % Insulin Activity [3] [%] | % Insulin Activity [2] [%] | other results
DP3(TC): B^1(H5,10Y16L17K29)29: A^1(H8,N18,21) (ligand) | 33.1 | 160 |  |  |  | 
IGF-1 A (H8 A9 N21): B (H5D10Y16L17 A22) DPI A-COOH (ligand) |  |  |  |  |  | % Insulin [4]: 360% and 614%
IGF-1 A: B (H5D10Y16L17) (S═O) DPI (ligand) |  |  |  |  |  | % insulin (in test) [5]: 316%; IC50 [5]: 250 pM
IGF-1 A: B (H5D10Y16L17) DPI (ligand) |  |  |  |  |  | % insulin (in test) [5]: 479%; IC50 [5]: 160 pM
MIU-57: B^1(H5,Y16,L17)25-C^1-A^1(N18,21) with a 20 kDa PEG on the N-terminus of the B chain (from UniProt P05019 49-110) (ligand) | 1.1 | 4.5 | 1.1 | 3.1 | 1.2 | % (in vitro activity, IGF-1 R) [2]: 1.2%
MIU-58: dimer of two B^1(H5,Y16,L17)25-C^1-A^1(N18,21) linked head to head via a 20 kDa PEG chain (from UniProt P05019 49-110) (ligand) |  |  | 5.8 | 19.7 | 2.6 | 
MIU-67: B^1(H5,Y16,L17)25-C^1(K8)-A^1(N18,21), two 10K PEG chains at the N-terminus and C8 (from UniProt P05019 49-110) (ligand) |  |  | 0.1 | 0.2 | < 0.1 | 
MIU-68: B^1(H5,Y16,L17,K22)25-C^1(K8)-A^1(N18,21), two 10K PEG chains at the N-terminus and B22 (from UniProt P05019 49-110) (ligand) |  |  | 0.1 | 0.4 | < 0.1 | 
MIU-69: B^1(H5,Y16,L17)25-C^1(K8)-A^1(K14,N18,21), two 10K PEG chains at the N-terminus and A14 (from UniProt P05019 49-110) (ligand) |  |  | 0.5 | 1 | < 0.1 | 
MIU-78 mono-20K-TC: B1-20K B^1(H5,10Y16L17K29)29: A^1(H8N18,21) (ligand) | 3.2 | 8.2 |  |  |  | 
MIU-79 di-10K-SC: B1, A14-10K B^1(H5,10Y16L17R29)30-C^1des9-12-A^1(H8,K14,N18,21) (from UniProt P05019 49-110) (ligand) | 0.2 | 1.7 |  |  |  | 
Thr,A8: B^1(H5,10Y16L17)25-C^1-A^1(T8N18,21) (from UniProt P05019 49-110) (ligand) | 8.4 | 20.4 |  |  |  | % (in vitro activity, IGF-1 R) [2]: 3.7%
